Entries after “also recorded” stand apart in the source; their conditions may differ. Where a SMILES comes first, the peptide text is derived from it. [ ]: non-standard residue; d: D form. The star is where a group is joined. Biotin = O=C1N[C@H]2[C@H](CS[C@H]2CCCCC(=O)*)N1; NHPr = CCCN*
Tests used:
[1] = Solubility and behaviour on dissolution in water; format: physicochemical
From the text: All of the synthesized peptides are soluble at 1% w/v concentration in distilled water and in acid (0.1 M HCl) solutions.

[2] = Self-healing tests of assembled scaffolds after mechanical rupture; format: physicochemical; conditions: recovery of scaffold stiffness after mechanical rupture
Protocol: (§1) Rheological properties were determined for the peptides of the invention, using a controlled stress TA Instruments AR-2000ex rheometer (TAInstruments). A cone-and-plate geometry (acrylic cone diameter, 20 mm; angle, 1°; truncation gap 34 μm) was used. All measurements were obtained at a constant monitored temperature of 25° C. Preliminary strain sweeps were performed for each sample to define the linear viscoelastic region, thus ensuring that moduli were independent of strain. Time sweeps, after addition of PBS (1×) were recorded at constant angular frequency (ω=1 Hz). Frequency sweeps, both for peptide water solutions and for self-assembled scaffolds, were performed with the instrument in oscillatory mode at controlled strain of 1%. Final: onset point of rupture was calculated by linear interpolation and subsequent determination of the intersection of the G′ modes in the linear region and at material rupture respectively. G′ values were averaged in the 1-100 Hz region and between n=3 independent replicates. During self-healing tests the self-assembled scaffold was torn by applying a strain sweep (0.01%-1000% strain range) at 1 Hz oscillatory frequency. G′ values were is recorded in frequency sweep mode (at 1% strain) or, in time sweep mode (at 1 Hz and at 1% strain), before and after the strain sweep step, subsequent observations were performed every half hour or, in case of time sweep test, every 30 seconds. In all of the SAPs the difference between the storage moduli measured before and after PBS addition spanned from two to four orders of magnitude, proving the dramatic biomechanical changes taking place during scaffold gelation. Peptide B3 (1%) yielded a solid stiff scaffold (G′=2917 Pa), supporting the idea that ionic charges may screen the electrostatic repulsions given by positively charged lysine residues and speed up the spontaneous ongoing self-assembling process, on its turn giving an already viscous (G′=67 Pa) and opaque solution at day 1. Among the peptides giving soft scaffold (100 Pa-1000 Pa range) peptides 4, B19, B25, B28 and 30 were included. On the opposite side, SAPs yielding solid stiff scaffolds are B15, B22, B24, B27 and 31 (5000 Pa-9000 Pa range).
Solid scaffolds were obtained via addition of PBS (1×) in a cone-and-plate rheometer; we measured the storage modulus, the samples were subjected to a strain sweep (0.01% to 1000%) until and far beyond rupture occurred (i.e. is monitoring the sudden drop of G′ value). Samples were then left in place (keeping them hydrated with PBS) and their G′ were measured every 30 minutes via frequency sweep tests in the range of 0.1 Hz to 60 Hz. As a negative control KLD-12, a well-known SAP, was tested (4, 6). […] In FIG. 6b peptide B25 (3% w/v concentration) was assessed for self-healing in a time sweep mode, every 30 seconds, at 1 Hz and at 1% strain. Values of G′ recovered after 100 minutes (1000 Pa) and steadily plateaued over time. For peptides B3, B22, B25 and B27 full recovery was obtained at different time intervals after rupture, ranging from 60′ to 240′. Similar results were confirmed by multiple independent experiments, but at different time ranges, for all of the self-assembling peptides except for B19 and B28.
Samples were checked for rupture by tilting. After a maximum of four hours all of the samples returned to their solidified gel appearance. This healing could be repeated at will.

[3] = system: human Neural Stem Cells (hNSCs); assay: CellTiter 96 Aqueous Proliferation Assay of hNSCs on self-assembled scaffolds; format: cell-based; conditions: 7 DIV, n=6, versus negative control (plastic)
Protocol: Neural precursor cultures are established and expanded as previously described (15, 16). Human neural stem cells (NSCs) were isolated from the central nervous system, in particular from the diencephalon and the cerebral cortex of human brain 10.5 weeks from conception. The modalities for obtaining the primary tissue are in agreement with the guidelines of the European Network for Transplantation (NECTAR).
(§2) In vitro tests were performed following a previously adopted methodology (5). Briefly, cells (at a concentration of 6×10^4 cells/cm^2) were seeded on the top-surface of each assembled scaffold previously assembled into 96 multiwells. Initially, cells were cultured with basal medium supplemented with βFGF (10 ng/ml), added to enhance neuronal progeny differentiation. At 3 days in vitro (DIV), βFGF medium was replaced with Leukemia Inhibitory Factor (LIF, Chemicon) (20 ng/ml) and Brain Derived Neurotrophic Factor (BDNF, Peprotech) (20 ng/ml). Fresh medium was added every three days. Positive and negative controls consisted of CULTREX-BME® substrate (R&D systems) (1:100 dilution in basal medium) and untreated bottom well surfaces respectively.
Cell viability was quantified via […] 96® Aqueous Proliferation Assay (Promega, Madison, Wis.) at 7 DIV as recommended in the Promega protocol. After calibrating the linear response between the cell number and absorbance values, proliferated cell populations were quantified (n=6) by using a Vmax microplate reader (Molecular Devices, Sunnyvale, Calif.) at 490 nm wavelength. Values, reported as means±standard error of the mean, were blanked to their respective controls consisting of same substrates and cell culture media without cells.
(§3) To assess the potential of the proposed SAPs for cell cultures and, more generally, for regenerative medicine, a two-dimensional cell culture protocol already developed for RADA16-I-like peptides was adapted (5). Briefly, human Neural Stem Cells (hNSCs), mechanically dissociated 1 day before plating, were seeded and cultured for one week in vitro over self-assembled scaffolds of B3, 4, B15, B17, B19, B22, B24, B25, B27, B28, 30, 31 and over non-coated tissue culture plastic wells (negative control).

[4] = Macro-scale scaffold formation upon exposure to PBS / neutral pH buffer; format: physicochemical; conditions: upon exposure to PBS (1×) / neutral pH buffer
From the text: The tested peptides solutions appearance ranged from peptides giving clear liquid is solutions (e.g. 4, B15, B19, B25, B28, 30) to samples which become opaque in 1 to 7 days after dissolution (e.g. B3, B17, B22, B24, B27, 31) as shown in FIG. 2a (I). Most of the liquid solutions increased in viscosity over the first week after dissolution, however after ten days in water no appreciable changes happened at the macroscale.
(§4) Nonetheless, keeping constant the observation time, the storage moduli of peptide solutions previously dissolved (the day before) at 3% w/v were measured. Measurements were obtained of these peptide solutions, further diluted to 1% w/v at the same day of the experiment (unless otherwise specified), and, after addition of PBS, of the formed scaffolds.

[5] = system: human Neural Stem Cells (hNSCs); assay: Phase contrast imaging of hNSC morphology on scaffolds; format: cell-based; conditions: 7 days in vitro
Protocol: as §2, §3

[6] = system: human Neural Stem Cells (hNSCs); assay: Live/Dead cell imaging (calcein AM / ethidium homodimer); format: cell-based; conditions: cells cultured for 10 days
Protocol: as §2
Live/Dead cell imaging (MolecularProbes) was obtained by incubating cells cultured for 10 days with a staining solution containing 2.0 μM calcein AM and 4.0 μM ethidium homodimer in PBS at 37° C. for 60 min and visualized by inverted fluorescence microscope (Zeiss).

[7] = Rheological tests (storage modulus G′, cone-and-plate rheometer); format: physicochemical
Protocol: as §1
The mechanical properties of the synthesized peptides were tested with a cone-and-plate rheometer. Firstly, the G′ dependence of peptide water solutions on concentration increments, and consequently aggregation kinetics, was assessed as shown in FIG. 2b.
as §4

Molecule	self-assembling on dissolution [1]	self-healing property [2]	living cell population / hNSC viability (CellTiter assay) [3]	solid scaffold / hydrogel formation [4]	cell morphology / degree of spreading [5]	further results
Biot-GGGPFSSTNT-CONH2 (Biotin-GGGPFSSTNT-NH2; SMILES C[C@@H](O)[C@H](NC(=O)[C@H](CC(N)=O)NC(=O)[C@@H](NC(=O)[C@H](CO)NC(=O)[C@H](CO)NC(=O)[C@H](Cc1ccccc1)NC(=O)[C@@H]1CCCN1C(=O)CNC(=O)CNC(=O)CNC(=O)CCCC[C@@H]1SC[C@@H]2NC(=O)N[C@@H]21)[C@@H](C)O)C(N)=O) [B11]	immediately self-assembling with dissolution in water	–	–	–	–	–
Ac-WGGGPFSSTKT-CONH2 (Ac-WGGGPFSSTKT-NH2) [peptide 4]	–	self-healing property has been seen	comparable to the biotinilated peptides	yielded solid scaffolds	–	–
Biot-GGGPFSSTET-CONH2 (Biotin-GGGPFSSTET-NH2; SMILES C[C@@H](O)[C@H](NC(=O)[C@H](CCC(=O)O)NC(=O)[C@@H](NC(=O)[C@H](CO)NC(=O)[C@H](CO)NC(=O)[C@H](Cc1ccccc1)NC(=O)[C@@H]1CCCN1C(=O)CNC(=O)CNC(=O)CNC(=O)CCCC[C@@H]1SC[C@@H]2NC(=O)N[C@@H]21)[C@@H](C)O)C(N)=O) [B12]	immediately self-assembling with dissolution in water	–	–	–	–	–
Biot-GGGPFSSTDT-CONH2 (Biotin-GGGPFSSTDT-NH2; SMILES C[C@@H](O)[C@H](NC(=O)[C@H](CC(=O)O)NC(=O)[C@@H](NC(=O)[C@H](CO)NC(=O)[C@H](CO)NC(=O)[C@H](Cc1ccccc1)NC(=O)[C@@H]1CCCN1C(=O)CNC(=O)CNC(=O)CNC(=O)CCCC[C@@H]1SC[C@@H]2NC(=O)N[C@@H]21)[C@@H](C)O)C(N)=O) [B10]	immediately self-assembling with dissolution in water	–	–	–	–	–
Ac-WGGGAFSSTKT-CONH2 (Ac-WGGGAFSSTKT-NH2) [peptide 31]	–	self-healing property has been seen	comparable to the biotinilated peptides	yielded solid scaffolds	branched cells	–
C[C@@H](O)[C@H](NC(=O)[C@H](CCCNC(=N)N)NC(=O)[C@@H](NC(=O)[C@H](CO)NC(=O)[C@H](CO)NC(=O)[C@H](Cc1ccccc1)NC(=O)[C@@H]1CCCN1C(=O)CNC(=O)CNC(=O)CNC(=O)CCCC[C@@H]1SC[C@@H]2NC(=O)N[C@@H]21)[C@@H](C)O)C(N)=O [B22] (Biotin-GGGPFSSTRT-NH2)	–	–	–	–	–	live/dead cell imaging [6]: clamped in poorly branched aggregates; also recorded: bipolar cells
Biot-GGGAFSSTKTGRGD-CONH2 (Biotin-GGGAFSSTKTGRGD-NH2; SMILES C[C@H](NC(=O)CNC(=O)CNC(=O)CNC(=O)CCCC[C@@H]1SC[C@@H]2NC(=O)N[C@@H]21)C(=O)N[C@@H](Cc1ccccc1)C(=O)N[C@@H](CO)C(=O)N[C@@H](CO)C(=O)N[C@H](C(=O)N[C@@H](CCCCN)C(=O)N[C@H](C(=O)NCC(=O)N[C@@H](CCCNC(=N)N)C(=O)NCC(=O)N[C@@H](CC(=O)O)C(N)=O)[C@@H](C)O)[C@@H](C)O) [B19]	–	–	significantly different from negative control	yielded solid scaffolds	–	–
Biot-GGG(Propylamine)FSSTKT-CONH2 (Biotin-GGG[NHPr]FSSTKT-NH2) [peptide B28]	–	–	cell population comparable to those of the other peptides	yielded solid scaffolds	proliferated cell clusters	minimum necessary peptide concentration for gelation [7]: 3 % w/v
Biot-GGGPFSSTQT-CONH2 (Biotin-GGGPFSSTQT-NH2; SMILES C[C@@H](O)[C@H](NC(=O)[C@H](CCC(N)=O)NC(=O)[C@@H](NC(=O)[C@H](CO)NC(=O)[C@H](CO)NC(=O)[C@H](Cc1ccccc1)NC(=O)[C@@H]1CCCN1C(=O)CNC(=O)CNC(=O)CNC(=O)CCCC[C@@H]1SC[C@@H]2NC(=O)N[C@@H]21)[C@@H](C)O)C(N)=O) [B13]	immediately self-assembling with dissolution in water	–	–	–	–	–
Biot-GGGAFSSTKT-CONH2 (Biotin-GGGAFSSTKT-NH2; SMILES C[C@H](NC(=O)CNC(=O)CNC(=O)CNC(=O)CCCC[C@@H]1SC[C@@H]2NC(=O)N[C@@H]21)C(=O)N[C@@H](Cc1ccccc1)C(=O)N[C@@H](CO)C(=O)N[C@@H](CO)C(=O)N[C@H](C(=O)N[C@@H](CCCCN)C(=O)N[C@H](C(N)=O)[C@@H](C)O)[C@@H](C)O) [B15]	–	self-healing property has been seen	biggest living cell populations, significantly different from negative control	yielded solid scaffolds	branched cells	storage modulus G′ of assembled scaffold (G′ post-assembling) ([7]; after PBS (1×) addition, averaged in 1-100 Hz range, 25° C., B3 at 1%): 8500 Pa
